According to patent CN112480258A (HUADAO SHANGHAI BIOMEDICAL CO LTD, dated 2021):

T1: Human IL-3Rα/CD123蛋白 (human, UniProt P26951 19-305, limits assumed)
T1 construct: Soluble antigen in the SPR mobile phase
T1 sequence (looked up): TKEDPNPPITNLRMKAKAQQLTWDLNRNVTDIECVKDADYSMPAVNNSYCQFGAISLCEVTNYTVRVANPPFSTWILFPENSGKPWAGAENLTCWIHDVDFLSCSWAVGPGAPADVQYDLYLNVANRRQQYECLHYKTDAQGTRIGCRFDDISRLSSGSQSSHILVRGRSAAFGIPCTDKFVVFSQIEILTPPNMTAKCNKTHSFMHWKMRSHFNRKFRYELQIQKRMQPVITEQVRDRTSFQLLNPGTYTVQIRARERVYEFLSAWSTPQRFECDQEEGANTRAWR


Biological target: T1, Human IL-3Rα/CD123蛋白
Assay: SPR (Biacore), antibody immobilised on the chip, antigen in the mobile phase

Kd | koff | kon | Binder
0.0466 nM | 1.42e-05 s⁻¹ | 305000 M⁻¹ s⁻¹ | CD123-9 VHH-mIgG2a Fc纳米抗体 (Fc fusion, also called 抗CD123 VHH抗体CD123-9; CD123-9抗体; not shown: mouse IgG2a Fc tag from vector C-4pCP.Stuffer-mCg2a-FC) EVQLVESGGGLVQPGGSLRLSCAASGFTFSSYDMSWVRQAPGKGLEWVSHIKPGPVGTDYTDSVKGRFTISRDNAKNTLYLQMDSLKTEDTAVYYCARGSRYSWNLDGPLRGQGTQVTVSS
0.0551 nM | 1.62e-05 s⁻¹ | 295000 M⁻¹ s⁻¹ | CD123-12 VHH-mIgG2a Fc纳米抗体 (Fc fusion, also called 抗CD123 VHH抗体CD123-12; CD123-12抗体; not shown: mouse IgG2a Fc tag from vector C-4pCP.Stuffer-mCg2a-FC) EVQLVESGGDLVQPGGSLRLSCAASGFTFSSYDMSWVRQAPGKGLEWVSHIKPGPVGTDYTDSVKGRFTISRDNAKNTLYLQMDSLKTEDTAVYYCARGSRYSWNLDGPLRGQGTQVTVSS
